1 substance from patent EP2411513B1 can be followed below.

The target in the assay is CD11b/CD18 receptor on J774A.1 murine monocytes/macrophages (murine) (UniProt P05555). The assay can be described thus: cell-based or functional assay.

For “CyaA/233OVA/K860R/AC- (from UniProt J7QLC0 1-1706)”, the Lysis of J774A.1 cells (% of AC-) was 72 % of AC-.
